Results from the MegaScale stability set (Tsuboyama et al. 2023).

B1: EHEE_rd2_0601 (parent)
chain: TYTYKLTDEEASRRAEDEWRNRGYDVRVRNNNGTWEVEVR

Variants of: B1
Experiment: folding stability dG (cDNA display proteolysis); higher = more stable
Settings: PBS, room temperature
For TYTYKLTDEEASRRAEDEWRNRGYDVRVRNNNFTWEVEVR [G33F], the “folding stability dG” value was -0.159 kcal/mol. For TYTYKLTDEEASRRAEDEWRNRGYDVRVRNNNATWEVEVR [G33A], the “folding stability dG” value was -0.168 kcal/mol. In the case of TYTYKLTDEEASRRAEDEWRNRGYDVRVRNNNHTWEVEVR [G33H], the “folding stability dG” value is reported as -0.011 kcal/mol. In the case of TYTYKLTDEEASRRAEDEWRNRGYDVRVRNNNNTWEVEVR [G33N], the “folding stability dG” value is reported as 0.553 kcal/mol. With TYTYKLTDEEASRRAEDEWRNRGYDVRVRNNNVTWEVEVR [G33V] the “folding stability dG” value was -0.925 kcal/mol. For TYTYKLTDEEASRRAEDEWRNRGYDVRVRNNNTTWEVEVR [G33T], the “folding stability dG” value was -0.078 kcal/mol. For TYTYKLTDEEASRRAEDEWRNRGYDVRVRNNNKTWEVEVR [G33K], the “folding stability dG” value was -0.238 kcal/mol. For TYTYKLTDEEASRRAEDEWRNRGYDVRVRNNNMTWEVEVR [G33M], the “folding stability dG” value was -0.081 kcal/mol. For TYTYKLTDEEASRRAEDEWRNRGYDVRVRNNNWTWEVEVR [G33W], the “folding stability dG” value was -0.61 kcal/mol. In the case of TYTYKLTDEEASRRAEDEWRNRGYDVRVRNNNETWEVEVR [G33E], the “folding stability dG” value is reported as 0.259 kcal/mol. In the case of TYTYKLTDEEASRRAEDEWRNRGYDVRVRNNNSTWEVEVR [G33S], the “folding stability dG” value is reported as 0.025 kcal/mol. For TYTYKLTDEEASRRAEDEWRNRGYDVRVRNNNQTWEVEVR [G33Q], the “folding stability dG” value was 0.157 kcal/mol. For TYTYKLTDEEASRRAEDEWRNRGYDVRVRNNNDTWEVEVR [G33D], the “folding stability dG” value was 0.603 kcal/mol. With TYTYKLTDEEASRRAEDEWRNRGYDVRVRNNNCTWEVEVR [G33C] the “folding stability dG” value was 0.74 kcal/mol. In the case of TYTYKLTDEEASRRAEDEWRNRGYDVRVRNNNYTWEVEVR [G33Y], the “folding stability dG” value is reported as -0.464 kcal/mol. With TYTYKLTDEEASRRAEDEWRNRGYDVRVRNNNLTWEVEVR [G33L] the “folding stability dG” value was -0.48 kcal/mol. For TYTYKLTDEEASRRAEDEWRNRGYDVRVRNNNRTWEVEVR [G33R], the “folding stability dG” value was -0.712 kcal/mol. For TYTYKLTDEEASRRAEDEWRNRGYDVRVRNNKGTWEVEVR [N32K], the “folding stability dG” value was 0.989 kcal/mol. For TYTYKLTDEEASRRAEDEWRNRGYDVRVRNNWGTWEVEVR [N32W], the “folding stability dG” value was -0.071 kcal/mol. With TYTYKLTDEEASRRAEDEWRNRGYDVRVRNNLGTWEVEVR [N32L] the “folding stability dG” value was 0.77 kcal/mol. With TYTYKLTDEEASRRAEDEWRNRGYDVRVRNNQGTWEVEVR [N32Q] the “folding stability dG” value was 1.05 kcal/mol. For TYTYKLTDEEASRRAEDEWRNRGYDVRVRNNHGTWEVEVR [N32H], the “folding stability dG” value was 1.07 kcal/mol. With TYTYKLTDEEASRRAEDEWRNRGYDVRVRNNTGTWEVEVR [N32T] the “folding stability dG” value was 0.049 kcal/mol. With TYTYKLTDEEASRRAEDEWRNRGYDVRVRNNVGTWEVEVR [N32V] the “folding stability dG” value was 0.08 kcal/mol. With TYTYKLTDEEASRRAEDEWRNRGYDVRVRNNFGTWEVEVR [N32F] the “folding stability dG” value was 0.778 kcal/mol. In the case of TYTYKLTDEEASRRAEDEWRNRGYDVRVRNNDGTWEVEVR [N32D], the “folding stability dG” value is reported as 1.16 kcal/mol. With TYTYKLTDEEASRRAEDEWRNRGYDVRVRNNRGTWEVEVR [N32R] the “folding stability dG” value was 0.859 kcal/mol. With TYTYKLTDEEASRRAEDEWRNRGYDVRVRNNEGTWEVEVR [N32E] the “folding stability dG” value was 1.15 kcal/mol. In the case of TYTYKLTDEEASRRAEDEWRNRGYDVRVRNNMGTWEVEVR [N32M], the “folding stability dG” value is reported as 1.08 kcal/mol. For TYTYKLTDEEASRRAEDEWRNRGYDVRVRNNAGTWEVEVR [N32A], the “folding stability dG” value was 1.12 kcal/mol. For TYTYKLTDEEASRRAEDEWRNRGYDVRVRNNGGTWEVEVR [N32G], the “folding stability dG” value was 1.39 kcal/mol. With TYTYKLTDEEASRRAEDEWRNRGYDVRVRNNIGTWEVEVR [N32I] the “folding stability dG” value was -0.191 kcal/mol. In the case of TYTYKLTDEEASRRAEDEWRNRGYDVRVRNNYGTWEVEVR [N32Y], the “folding stability dG” value is reported as 0.605 kcal/mol. With TYTYKLTDEEASRRAEDEWRNRGYDVRVRNNSGTWEVEVR [N32S] the “folding stability dG” value was 0.857 kcal/mol. For TYTYKLTDEEASRRAEDEWRNRGYDVRVRNNNGTWEFEVR [V37F], the “folding stability dG” value was 0.362 kcal/mol. In the case of TYTYKLTDEEASRRAEDEWRNRGYDVRVRNNNGTWEAEVR [V37A], the “folding stability dG” value is reported as -0.419 kcal/mol. For TYTYKLTDEEASRRAEDEWRNRGYDVRVRNNNGTWEWEVR [V37W], the “folding stability dG” value was -0.973 kcal/mol. With TYTYKLTDEEASRRAEDEWRNRGYDVRVRNNNGTWEYEVR [V37Y] the “folding stability dG” value was -0.753 kcal/mol. With TYTYKLTDEEASRRAEDEWRNRGYDVRVRNNNGTWEIEVR [V37I] the “folding stability dG” value was 1.75 kcal/mol. For TYTYKLTDEEASRRAEDEWRNRGYDVRVRNNNGTWEHEVR [V37H], the “folding stability dG” value was 0.241 kcal/mol. In the case of TYTYKLTDEEASRRAEDEWRNRGYDVRVRNNNGTWELEVR [V37L], the “folding stability dG” value is reported as 1.46 kcal/mol. With TYTYKLTDEEASRRAEDEWRNRGYDVRVRNNNGTWEMEVR [V37M] the “folding stability dG” value was 0.715 kcal/mol. With TYTYKLTDEEASRRAEDEWRNRGYDVRVRNNNGTWETEVR [V37T] the “folding stability dG” value was -0.63 kcal/mol. With TYTYKLTDEEASRRAEDEWRNRGYDVRVRNNNGTCEVEVR [W35C] the “folding stability dG” value was -0.208 kcal/mol. With TYTYKLTDEEASRRAEDEWRNRGYDVRVRNNNGTPEVEVR [W35P] the “folding stability dG” value was -0.671 kcal/mol. With TYTYKLTDEEASRRAEDEWRNRGYDVRVRNNNGTVEVEVR [W35V] the “folding stability dG” value was -0.844 kcal/mol. For TYTYKLTDEEASRRAEDEWRNRGYDVRVRNNNGTIEVEVR [W35I], the “folding stability dG” value was 0.328 kcal/mol. For TYTYKLTDEEASRRAEDEWRNRGYDVRVRNNNGTFEVEVR [W35F], the “folding stability dG” value was 0.888 kcal/mol. With TYTYKLTDEEASRRAEDEWRNRGYDVRVRNNNGTLEVEVR [W35L] the “folding stability dG” value was -0.206 kcal/mol. With TYTYKLTDEEASRRAEDEWRNRGYDVRVRNNNGTYEVEVR [W35Y] the “folding stability dG” value was 0.894 kcal/mol. In the case of TYTYKLTDEEASRRAEDEWRNRGYDVRVRNNNGTMEVEVR [W35M], the “folding stability dG” value is reported as -0.533 kcal/mol. For TYTYKLTDEEASRRAEDEWRNRGYDVRVRNNNGTTEVEVR [W35T], the “folding stability dG” value was -0.644 kcal/mol. In the case of TYTYKLTDEEASRRAEDEWRNRGYDVRVRFNNGTWEVEVR [N30F], the “folding stability dG” value is reported as 2.29 kcal/mol. With TYTYKLTDEEASRRAEDEWRNRGYDVRVRTNNGTWEVEVR [N30T] the “folding stability dG” value was 0.81 kcal/mol. For TYTYKLTDEEASRRAEDEWRNRGYDVRVRLNNGTWEVEVR [N30L], the “folding stability dG” value was 1.6 kcal/mol. For TYTYKLTDEEASRRAEDEWRNRGYDVRVRANNGTWEVEVR [N30A], the “folding stability dG” value was 1.03 kcal/mol. With TYTYKLTDEEASRRAEDEWRNRGYDVRVRYNNGTWEVEVR [N30Y] the “folding stability dG” value was 2.33 kcal/mol. With TYTYKLTDEEASRRAEDEWRNRGYDVRVRPNNGTWEVEVR [N30P] the “folding stability dG” value was 0.863 kcal/mol. For TYTYKLTDEEASRRAEDEWRNRGYDVRVRHNNGTWEVEVR [N30H], the “folding stability dG” value was 1.61 kcal/mol. In the case of TYTYKLTDEEASRRAEDEWRNRGYDVRVRKNNGTWEVEVR [N30K], the “folding stability dG” value is reported as 1.34 kcal/mol. For TYTYKLTDEEASRRAEDEWRNRGYDVRVRQNNGTWEVEVR [N30Q], the “folding stability dG” value was 1.51 kcal/mol. For TYTYKLTDEEASRRAEDEWRNRGYDVRVRENNGTWEVEVR [N30E], the “folding stability dG” value was 1.7 kcal/mol.
